Experimental data taken from US20260035475A1 (BIOARCTIC, published 2026).
Where a chain is given by its changes, count along the chain named. Numbers in names are those of the source. Values belong to the binder of their own block, whether it stands above or below them.

How the values were obtained:
[1] = target: T1, chimeric TfR1 consisting of human protease like domain grafted on mouse TfR1 ectodomain (SEQ ID NO:78) (human/mouse chimera); assay: indirect ELISA on coated h/m protease-like domain chimera (1 ug/ml), IgG dilution series; x axis printed 'TfR (ng/ml)' [D]
T1 construct: His-tagged; also called h/m protease-like domain chimera
T1 chain: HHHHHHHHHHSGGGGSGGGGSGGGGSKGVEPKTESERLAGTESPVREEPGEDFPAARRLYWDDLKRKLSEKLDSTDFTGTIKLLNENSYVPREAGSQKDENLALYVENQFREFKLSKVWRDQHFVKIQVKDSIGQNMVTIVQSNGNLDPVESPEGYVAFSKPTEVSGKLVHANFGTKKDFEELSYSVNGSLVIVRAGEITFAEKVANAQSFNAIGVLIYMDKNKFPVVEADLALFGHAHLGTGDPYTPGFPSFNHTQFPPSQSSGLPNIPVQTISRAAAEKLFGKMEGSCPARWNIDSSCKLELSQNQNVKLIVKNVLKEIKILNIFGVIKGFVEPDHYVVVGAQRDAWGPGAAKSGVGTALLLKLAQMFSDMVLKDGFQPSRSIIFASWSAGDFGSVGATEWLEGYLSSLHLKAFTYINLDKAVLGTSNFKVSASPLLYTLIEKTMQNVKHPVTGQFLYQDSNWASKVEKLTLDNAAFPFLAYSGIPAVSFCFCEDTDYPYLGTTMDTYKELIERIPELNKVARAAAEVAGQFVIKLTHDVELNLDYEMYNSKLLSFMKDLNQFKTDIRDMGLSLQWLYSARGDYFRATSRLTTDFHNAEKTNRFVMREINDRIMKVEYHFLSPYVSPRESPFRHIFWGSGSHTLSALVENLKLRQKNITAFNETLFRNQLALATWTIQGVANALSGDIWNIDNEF
Description: Plasma samples serially diluted from a starting dilution of 1/450 or hybridoma supernatants diluted 1/2 were added to the plates (50 μl/well; dilution buffer: PBS with 0.1% BSA and 0.05% TWEEN®-20) and incubated for 2 h at room temperature and then the plates were washed four times. […] After another wash (as above), 50 μl/well TMB substrate (K-Blue® Aqueous, Neogen) was added, and the reaction was stopped after 10-15 min with 50 μl/well of 0.5 M H₂SO₄. The optical density at 450 nm was read using a plate reader (Tecan). The endpoint titers were defined as the dilution above the average of the blank wells (background) plus 3 standard deviations of the blank wells.
The coated plates were then blocked. Dilution series of mouse IgG of the analyzed antibodies were prepared in PBS and incubated on the ELISA plates. Unbound antibodies were then washed off before incubating wells with a HRP-conjugated secondary, anti-mouse-IgG for 1 h. Plates were then washed again before addition of HRP substrate TMB for development and detection of antibody binding to the wells. TMB development was stopped by adding 0.5 M H₂SO₄ to the wells and ELISA responses measured as the OD at 450 nm in an ELISA plate reader.

[2] = target: T2, ectodomain of human TfR1 (His10-hTfR1; SEQ ID NO:74) (human, UniProt P02786 89-760); assay: indirect ELISA on coated hTfR1 ectodomain (1 ug/ml), Fab 1:3 dilutions, anti-human IgG F(ab')2-HRP [lower panel]
T2 construct: His-tagged ectodomain; also called ectodomain of hTfR1
T2 sequence (P02786 other isoform, or with tags, fused parts or gaps): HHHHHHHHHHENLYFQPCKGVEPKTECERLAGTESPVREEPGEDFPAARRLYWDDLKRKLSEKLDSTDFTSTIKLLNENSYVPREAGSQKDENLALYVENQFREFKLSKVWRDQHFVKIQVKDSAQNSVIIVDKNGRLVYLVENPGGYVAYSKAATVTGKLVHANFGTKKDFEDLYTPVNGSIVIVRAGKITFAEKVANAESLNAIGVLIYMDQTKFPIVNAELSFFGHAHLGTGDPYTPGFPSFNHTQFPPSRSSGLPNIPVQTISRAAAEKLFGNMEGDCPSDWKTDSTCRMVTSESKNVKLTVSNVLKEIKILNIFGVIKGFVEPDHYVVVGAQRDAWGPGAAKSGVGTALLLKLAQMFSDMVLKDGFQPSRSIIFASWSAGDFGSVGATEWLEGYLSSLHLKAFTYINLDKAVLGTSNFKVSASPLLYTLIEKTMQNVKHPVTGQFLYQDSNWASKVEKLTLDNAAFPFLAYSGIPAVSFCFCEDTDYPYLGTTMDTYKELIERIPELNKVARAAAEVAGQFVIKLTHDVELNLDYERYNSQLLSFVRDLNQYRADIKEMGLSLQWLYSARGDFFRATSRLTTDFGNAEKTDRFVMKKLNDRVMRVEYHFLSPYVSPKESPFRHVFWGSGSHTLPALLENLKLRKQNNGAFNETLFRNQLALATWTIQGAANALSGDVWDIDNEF
Description: For the indirect ELISA, half area 96-well plates (Corning, #3690) were coated with 1 μg/ml recombinant ectodomain of hTfR1 (SEQ ID NO:74) in PBS overnight at 4° C. The coated plates were blocked using Pierce protein-free blocking solution (Thermo Fisher Scientific, #37572) for 1 h at room temperature with shaking and washed four times in PBS containing 0.1% TWEEN-20. Serial dilutions (1:3) of various expressed constructs in incubation buffer (1% BSA, 0.1% TWEEN-20 in PBS) were incubated for 1 h at room temperature. […] Following four wash steps, K-Blue® Aqueous TMB substrate (Neogen, #331177) was added to the wells for 15 min at room temperature before the reaction was stopped with 1:1 dilution of 0.5 M H₂SO₄. The optical density at 450 nm was recorded (Spark, Tecan) and background signal was subtracted before analysis.

B1: 24B4 (mouse monoclonal antibody) (antibody, V domains shown)
VH: EVQLQQFGAELVKPGTSVKISCKASGYTFTDYNMDWVKQGHGKGLEWIGDINPNYDTTSYSQKFKGKATLTVDKSSSTAYMELRSLTSEDTAVYYCARSEAGNYYWYFDVWGAGTTVTVSS
VL: DIVMSQSPSSLAVSVGEKVTMSCKSSQSLLYSSNRKNYLAWYRQKPGQSPKLLIYWASTRESGVPDRFTGSGSGTDFTLTISSVKAEDLAVYSCQQYYNYPYTFGGGTKLEIK
binding result [1]: binds

B2: h26D3-Fab (humanized 26D3) (Fab, V domains shown)
VH: EVQLVQSGAEVKKPGSSVKVSCKASGYIFTDYNMDWVRQAPGQGLEWIGDINPDYDTTSYNEKFKGRATLTVDKSTSTAYMELSSLRSEDTAVYYCARGGYSGSSYYHPMDYWGQGTLVTVSS
VL: DIQMTQSPSSVSASVGDRVTITCKSSQSLLYSTNQKNYLAWYQQKPGKAPKLLIYWASTRESGVPSRFSGSGSGTDFTLTISSLQPEDFATYYCQQYFIYPRTFGQGTKVEIK
notes: His-tagged Fab
EC50 (read off the curve) [2]: ~400 nM

Further lines, results first:

EC50 (read off the curve) [2]: ~1000 nM
B3: h26D3 variant HC10 Fab (VH Y106A) (Fab, V domains shown)
VH: B2 VH with Y106A
VL: B2 VL
notes: Single mutant, His-tagged Fab

binding result [1]: binds
B4: 26D3 (mouse monoclonal antibody) (antibody, V domains shown)
VH: EVQLQQFGVELVKPGASVKISCKASGYIFTDYNMDWVKQSHGKSLEWIGDINPDYDTTSYNEKFKGKATLTVDKSSSTAYMELRSLTSEDTAVYYCARGGYSGSSYYHPMDYWGQGTSVTVSS
VL: DIVMSQSPSSLAVSVGEKITMSCKSSQSLLYSTNQKNYLAWYQQKPGQSPELLIYWASTRESGVPDRFTGSGSGTDFTLTISNVRAEDLAVYYCQQYFIYPRTFGGGTKLEIK
